Experiment [1] has as its target T1, rHuman IGF-1 sR (insulin-like growth factor-1 soluble receptor), CF (R&D Systems Cat#391-GR) (human, UniProt P08069 31-932).
T1 construct: Bought soluble receptor; also called IGF-R1
As to the kind of experiment: ECL (MSD multi-spot), antigen on plate, Fab 10 nM.

Experiment [2] has as its target T2, rHuman HGF R/c-MET/Fc Chimera, CF (R&D Systems Cat#358-MT/CF) (human, UniProt P08581 25-932).
T2 construct: Bought Fc chimera; also called HGF R/Fc; not shown: Fc of the bought chimera
As to the kind of experiment: ECL (MSD multi-spot), antigen on plate, Fab 10 nM.

The target of experiment [3] is T3, rHuman ErbB2/Fc Chimera, CF (R&D Systems Cat#1129-ER) (human, UniProt P04626 23-652).
T3 construct: Bought Fc chimera; also called HER2/neu; not shown: Fc of the bought chimera
Kind of experiment: ECL (MSD multi-spot), antigen on plate, Fab 10 nM.

For experiment [4], the target named is T4, rHuman Erythropoietin R/Fc Chimera, CF (R&D Systems Cat#963-ER) (human, UniProt P19235 25-250).
T4 construct: Bought Fc chimera; also called EPO R/Fc; Epo R; not shown: Fc of the bought chimera
T4 sequence: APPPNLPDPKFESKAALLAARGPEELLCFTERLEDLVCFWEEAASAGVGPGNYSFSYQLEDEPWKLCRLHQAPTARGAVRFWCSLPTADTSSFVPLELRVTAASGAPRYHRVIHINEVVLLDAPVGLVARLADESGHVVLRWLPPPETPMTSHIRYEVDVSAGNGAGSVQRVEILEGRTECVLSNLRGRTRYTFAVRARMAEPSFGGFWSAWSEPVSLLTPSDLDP
Kind of experiment: ECL (MSD multi-spot), antigen on plate, Fab 10 nM.

Experiment [5] addresses T5, rHuman EGF R/Fc Chimera, CF (R&D Systems Cat#344-ER) (human, UniProt P00533 25-645).
T5 construct: Bought Fc chimera; also called ErbB-1; not shown: Fc of the bought chimera
As to the kind of experiment: ECL (MSD multi-spot), antigen on plate, Fab 10 nM.

For experiment [6], the target named is T6, rHuman CD44/Fc Chimera, CF (R&D Systems Cat#3660-CD) (human, UniProt P16070 21-220).
T6 construct: Bought Fc chimera; not shown: Fc of the bought chimera
As to the kind of experiment: ECL (MSD multi-spot), antigen on plate, Fab 10 nM.

The target of experiment [7] is T7, Recombinant Human DLL4 (R&D Systems Cat#1506-D4/CF) (human, UniProt Q9NR61 27-524).
T7 construct: Bought recombinant protein; also called delta-like protein 4
As to the kind of experiment: ECL (MSD multi-spot), antigen on plate, Fab 10 nM.

Experiment [8] concerns the target T8, rHuman Notch-1/Fc Chimera, CF (R&D Systems Cat#3647-TK) (human, UniProt P46531 19-526).
T8 construct: Bought Fc chimera; not shown: Fc of the bought chimera
Kind of experiment: ECL (MSD multi-spot), antigen on plate, Fab 10 nM.

The target in experiment [9] is T9, rHuman CD44/Fc Chimera, CF (R&D Systems Cat#3660-CD) (human, UniProt P16070 21-220).
T9 construct: Purchased Fc chimera; not shown: Fc portion of the purchased chimera
As to the kind of experiment: MSD ECL multi-spot plate, antigen immobilized; Fab 8 nM; blank spot 479.

For experiment [10], the target named is T10, rHuman ErbB2/Fc Chimera, CF (R&D Systems Cat#1129-ER) (human, UniProt P04626 23-652).
T10 construct: Purchased Fc chimera; also called HER2/neu; not shown: Fc portion of the purchased chimera
The experiment is described as above.

Experiment [11] has as its target T11, rHuman Notch-1/Fc Chimera, CF (R&D Systems Cat#3647-TK) (human, UniProt P46531 19-526).
T11 construct: Purchased Fc chimera; not shown: Fc portion of the purchased chimera
The description is as above.

The target of experiment [12] is T12, Recombinant Human DLL4 (R&D Systems Cat#1506-D4/CF) (human, UniProt Q9NR61 27-524).
T12 construct: also called delta-like protein 4
As to the kind of experiment: MSD ECL multi-spot plate; Fab 32.5 nM; blank spot 473.

Experiment [13] deals with T13, rHuman CD44/Fc Chimera, CF (R&D Systems Cat#3660-CD) (human, UniProt P16070 21-220).
T13 construct: Fc part of the bought chimera not given
The experiment is described as above.

Experiment [14] has as its target T14, rHuman ErbB2/Fc Chimera, CF (R&D Systems Cat#1129-ER) (human, UniProt P04626 23-652).
T14 construct: also called HER2/neu; human epidermal growth factor 2 receptor; Fc part of the bought chimera not given
The description is as above.

In experiment [15] the target is T15, rHuman Erythropoietin R/Fc Chimera, CF (R&D Systems Cat#963-ER) (human, UniProt P19235 25-250).
T15 construct: also called EPO R/Fc; Epo R; Fc part of the bought chimera not given
T15 sequence: T4 sequence
Described as above.

Experiment [16] deals with T16, rHuman IGF-1 sR, (IGF-1 sR), CF (R&D Systems Cat#391-GR) (human, UniProt P08069 31-932).
T16 construct: also called insulin-like growth factor-1 soluble receptor; IGF-R1
Described as above.

Experiment [17] concerns the target T17, rHuman EGF R/Fc Chimera, CF (R&D Systems Cat#344-ER) (human, UniProt P00533 25-645).
T17 construct: also called epidermal growth factor receptor; Fc part of the bought chimera not given
The experiment is described as above.

The target of experiment [18] is T18, rHuman HGF R/c-MET/Fc Chimera, CF (R&D Systems Cat#358-MT/CF) (human, UniProt P08581 25-932).
T18 construct: also called HGF R/Fc; hepatocyte growth factor receptor; Fc part of the bought chimera not given
The experiment is described as above.

For experiment [19], the target named is T19, rHuman Notch-1/Fc Chimera, CF (R&D Systems Cat#3647-TK) (human, UniProt P46531 19-526).
T19 construct: Fc part of the bought chimera not given
The description is as above.
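Further: blank spot per well as comparator with Hit at signal to blank ratio of 4 or more.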

B1: Fab VH1-46_IGHD6-6*01_IGHJ1*01_S102A_S103P_S104F & L6_IGKJ1*01_S28P (Fab, V domains shown)
VH: QVQLVQSGAEVKKPGASVKVSCKASGYTFTSYYMHWVRQAPGQGLEWMGIINPSGGSTSYAQKFQGRVTMTRDTSTSTVYMELSSLRSEDTAVYYCAREEYAPFSAEYFQHWGQGTLVTVSS
VL: EIVLTQSPATLSLSPGERATLSCRASQPVSSYLAWYQQKPGQAPRLLIYDASNRATGIPARFSGSGSGTDFTLTISSLEPEDFAVYYCQQRSNWPPWTFGQGTKVEIKR
notes: Fab
In the case of B1, the ECL signal in experiment [1] came out at 152 ECL signal; in experiment [2], 136 ECL signal; in experiment [3] it was 136 ECL signal; in experiment [4] it was 392 ECL signal; in experiment [5] it was 207 ECL signal; in [6], 212 ECL signal. For the same molecule, the ECL signal in experiment [7] was found to be 26900 ECL signal; in experiment [8], 280 ECL signal.

B2: Fab VH5-51_IGHD5-18*01>3_IGHJ4*01_G100R & V3-4_IGLJ1*01 (Fab, V domains shown)
VH: EVQLVQSGAEVKKPGESLKISCKGSGYSFTSYWIGWVRQMPGKGLEWMGIIYPGDSDTRYSPSFQGQVTISADKSISTAYLQWSSLKASDTAMYYCARRRYSYGYDYFDYWGQGTLVTVSS
VL: QTVVTQEPSFSVSPGGTVTLTCGLSSGSVSTSYYPSWYQQTPGQAPRTLIYSTNTRSSGVPDRFSGSILGNKAALTITGAQADDESDYYCVLYMGSGISYVFGTGTKVTVL
notes: It was expressed as a Fab: CH1 with tags from Plasmid A and lambda CL from Plasmid E; also called Fab No. 23
For the molecule B2, the ECL signal amounted to 786 ECL signal in experiment [9], 1330 ECL signal in experiment [10] and 916 ECL signal in [11].

B3: Fab VH1-8_IGHD2-2*01_IGHJ6*01 & L12_IGKJ1*01 (Fab, V domains shown)
VH: QVQLVQSGAEVKKPGASVKVSCKASGYTFTSYDINWVRQATGQGLEWMGWMNPNSGNTGYAQKFQGRVTMTRNTSISTAYMELSSLRSEDTAVYYCARGGYCSSTSCYADYYYYYGMDVWGQGTTVTVSS
VL: not shown
As to B3, the ECL signal in experiment [12] came to 2990 ECL signal; in experiment [13] it was 573 ECL signal; in [14] it was 556 ECL signal; in experiment [15], 673 ECL signal; in experiment [16] it was 561 ECL signal; in experiment [17] it was 645 ECL signal. The ECL signal was 525 ECL signal in experiment [18] and 706 ECL signal in experiment [19].

Values taken from patent US20120058906A1 (published 2012).
